Measurements published in patent publication US20230372448A1, “THERAPEUTIC USE OF LONG-ACTING CONJUGATE OF TRIPLE AGONIST ACTING ON ALL OF GLUCAGON, GLP-1 AND GIP RECEPTORS AGAINST MULTIPLE SCLEROSIS” (HANMI PHARM. CO. ,LTD., priority 2020, published 2023).
Positions of bridges follow the written chain, without caps; N, C: chain ends. Non-standard residues stand in square brackets, D forms with d. No end group written: not given here. *: point of attachment. Acetyl(2-(4-imidazolyl)) = O=C(Cc1c[nH]cn1)*; Aib = CC(C)(N)C(=O)O

T1: human GIP receptor (human, UniProt P48546 22-466)
T1 sequence (looked up): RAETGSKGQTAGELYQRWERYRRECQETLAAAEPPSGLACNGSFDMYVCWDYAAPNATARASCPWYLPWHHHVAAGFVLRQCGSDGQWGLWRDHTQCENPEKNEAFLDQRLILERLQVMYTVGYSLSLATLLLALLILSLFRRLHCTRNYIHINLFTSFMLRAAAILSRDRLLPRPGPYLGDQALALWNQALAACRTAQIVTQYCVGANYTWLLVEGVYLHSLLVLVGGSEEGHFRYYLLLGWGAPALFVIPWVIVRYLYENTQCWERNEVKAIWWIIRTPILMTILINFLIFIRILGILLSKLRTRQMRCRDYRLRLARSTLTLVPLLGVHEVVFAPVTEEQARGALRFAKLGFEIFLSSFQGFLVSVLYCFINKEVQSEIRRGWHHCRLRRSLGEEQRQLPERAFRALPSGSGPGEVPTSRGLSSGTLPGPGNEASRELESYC


Experiments:
Assay in all cases: cell-based or functional assay
human GCG receptor = human GCG receptor (human, UniProt P47871 26-477)
Sequence of human GCG receptor (P47871 26-477): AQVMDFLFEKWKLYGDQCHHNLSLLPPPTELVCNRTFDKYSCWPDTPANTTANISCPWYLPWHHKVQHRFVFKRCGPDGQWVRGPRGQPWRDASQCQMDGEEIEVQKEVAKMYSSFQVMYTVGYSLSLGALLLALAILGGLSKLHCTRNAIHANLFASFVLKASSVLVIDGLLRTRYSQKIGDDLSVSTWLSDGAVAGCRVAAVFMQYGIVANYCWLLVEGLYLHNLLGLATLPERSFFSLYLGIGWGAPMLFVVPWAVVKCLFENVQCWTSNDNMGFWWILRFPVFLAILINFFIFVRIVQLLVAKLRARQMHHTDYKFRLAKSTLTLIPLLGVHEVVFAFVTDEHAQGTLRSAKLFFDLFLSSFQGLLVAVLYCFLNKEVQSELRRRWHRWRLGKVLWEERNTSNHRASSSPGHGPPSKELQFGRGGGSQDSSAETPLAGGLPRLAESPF

human GIP receptor = target: T1, human GIP receptor
human GLP-1 receptor = human GLP-1 receptor (human, UniProt P43220 24-463)

Binder	In vitro activity (%) compared with native peptide: vs Glucagon (human GCG receptor) [%]	In vitro activity (%) compared with native peptide: vs GIP (human GIP receptor) [%]	In vitro activity (%) compared with native peptide: vs GLP-1 (human GLP-1 receptor) [%]
{Acetyl(2-(4-imidazolyl))}-[Aib]QGTFTSDYSIAMDEIHQKDFVNWLLNTKC (bridge 15-19; not fully specified) [triple agonist of SEQ ID NO: 94]	< 0.1	< 0.1	0.5
{Acetyl(2-(4-imidazolyl))}-[Aib]QGTFTSDYSIAMDEIHQKDFVNWLLAQC (bridge 15-19; not fully specified) [triple agonist of SEQ ID NO: 85]	< 0.1	0.3	4.3
{Acetyl(2-(4-imidazolyl))}-[Aib]QGTFTSDYSIAMDEIHQKDFVNWLLNTC (bridge 15-19; not fully specified) [triple agonist of SEQ ID NO: 87]	< 0.1	< 0.1	0.9
Y[Aib]QGTFTSDYSKALDEKAAKEFVQWLLDQHPSSGQPPPSC (bridge 16-20) [triple agonist of SEQ ID NO: 100]	12.7	118	42.2
Y[Aib]QGTFTSDYSKALDEKAAKEFVNWLLDQHPSSGQPPPSC (bridge 16-20) [triple agonist of SEQ ID NO: 101]	13.9	40.1	23.2
{Acetyl(2-(4-imidazolyl))}-[Aib]QGTFTSDYSIAMDEIHQKDFVNWLLAQKC (bridge 15-19; not fully specified) [triple agonist of SEQ ID NO: 92]	< 0.1	0.4	0.8
{Acetyl(2-(4-imidazolyl))}-[Aib]QGTFTSDYSKYLDEKRQKEFVQWLLDTKC (bridge 15-19; not fully specified) [triple agonist of SEQ ID NO: 89]	0.7	< 0.1	7.1
Y[Aib]QGTFTSDYSKYLDEKRAKEFVQWLLCHHPSSGQPPPS (bridge 16-20; not fully specified) [triple agonist of SEQ ID NO: 95]	0.4	< 0.1	2.1
{Acetyl(2-(4-imidazolyl))}-GQGTFTSDYSIQLDEIAVRDFVEWLKNGGPSSGAPPPSHG (not fully specified; also: ring from underlined residues, positions not shown) [triple agonist of SEQ ID NO: 14]	< 0.1	< 0.1	28
H[Aib]QGTFTSDVSKYLDGQAAQEFVAWLLAGGGPSSGAPPPSC (not fully specified) [triple agonist of SEQ ID NO: 10]	< 0.1	< 0.1	46
Y[Aib]QGTFTSDYSKALDEKAAKDFVNWLLDQHPSSGQPPPSC (bridge 16-20) [triple agonist of SEQ ID NO: 102]	29.5	58	23.3
{Acetyl(2-(4-imidazolyl))}-GEGTFTSDLSKYLDSRRQQLFVQWLKAGGPSSGAPPPSHG (not fully specified; also: ring from underlined residues, positions not shown) [triple agonist of SEQ ID NO: 11]	< 0.1	< 0.1	1.4
{Acetyl(2-(4-imidazolyl))}-[Aib]EGTFTSDYSIAMDEIHQKDFVDWLLAEKC (bridge 15-19; not fully specified) [triple agonist of SEQ ID NO: 91]	16.8	0.3	31.9
Y[Aib]QGTFTSDYSKALDEKAAKEFVNWLLDHHPSSGQPPPSC (bridge 16-20; not fully specified) [triple agonist of SEQ ID NO: 98]	8.2	47.1	28.1
H[Aib]QGTFTSDVSSYLDGQAQKEFIAWLVKGC (not fully specified) [triple agonist of SEQ ID NO: 2]	< 0.1	< 0.1	5.9
{Acetyl(2-(4-imidazolyl))}-GEGTFISDYSIQLDEIAVQDFVEWLLAQKPSSGAPPPSHG (not fully specified; also: ring from underlined residues, positions not shown) [triple agonist of SEQ ID NO: 13]	< 0.1	< 0.1	< 0.1
{Acetyl(2-(4-imidazolyl))}-GEGTFISDLSKYMDEQAVQLFVEWLMAGGPSSGAPPPSHG (not fully specified; also: ring from underlined residues, positions not shown) [triple agonist of SEQ ID NO: 12]	< 0.1	< 0.1	0.4
{Acetyl(2-(4-imidazolyl))}-[Aib]QGTFTSDYSKYLDEKRQKEFVQWLLNTKC (bridge 15-19; not fully specified) [triple agonist of SEQ ID NO: 88]	0.3	< 0.1	9.6
Y[Aib]QGTFTSDYSKYLDEKRAKEFVQWLLDHCPSSGQPPPS (bridge 16-20; not fully specified) [triple agonist of SEQ ID NO: 96]	195	5.2	34.4
{Acetyl(2-(4-imidazolyl))}-[Aib]QGTFTSDYSKYLDEKRQKEFVNWLLAQKC (bridge 15-19; not fully specified) [triple agonist of SEQ ID NO: 93]	0.3	0.7	5.7
{Acetyl(2-(4-imidazolyl))}-GQGTFTSDLSKQMDSEAQQLFIEWLKNGGPSSGAPPPSHG (not fully specified; also: ring from underlined residues, positions not shown) [triple agonist of SEQ ID NO: 16]	< 0.1	< 0.1	2.1
{Acetyl(2-(4-imidazolyl))}-[Aib]EGTFTSDYSIAMDEIHQKDFVNWLLAQKC (bridge 15-19; not fully specified) [triple agonist of SEQ ID NO: 90]	< 0.1	< 0.1	7.4
Y[Aib]QGTFTSDYSKALDEKAAKDFVNWLLDHHPSSGQPPPSC (bridge 16-20; not fully specified) [triple agonist of SEQ ID NO: 99]	14.9	57.7	20.9
{Acetyl(2-(4-imidazolyl))}-[Aib]QGTFTSDYSKYLDEKRQKEFVNWLLAQC (bridge 15-19; not fully specified) [triple agonist of SEQ ID NO: 86]	0.4	0.2	28.4
Y[Aib]QGTFTSDYSKYLDEKRAKEFVQWLLDCHPSSGQPPPS (bridge 16-20; not fully specified) [triple agonist of SEQ ID NO: 97]	62.8	2.6	10.5
